Measurements from patent US20190040149A1 (Innovent, published 2019).
Where a chain is given by its changes, count along the chain named. Values belong to the binder of their own block, whether it stands above or below them.

How the values were obtained:
human PD-1_HIS = target: T1, human PD-1_HIS (human, UniProt Q15116 25-167, limits assumed); experiment: bio-layer interferometry (ForteBio), human PD-1_HIS in solution, IgG on sensor tip
T1 construct: not shown: His tag
Experimental: Briefly, ForteBio affinity measurements were performed by loading IgGs online onto AHQ sensors. Sensors were equilibrated off-line in assay buffer for 30 min and then monitored on-line for 60 seconds for baseline establishment. Sensors with loaded IgGs were exposed to 100 nM antigen for 5 min, afterwards they were transferred to assay buffer for 5 min for off-rate measurement. Kinetics was analyzed using the 1:1 binding model.

murine PD-1 on CHO cells = target: T2, murine PD-1 on CHO cells (mouse, UniProt Q02242 25-288); experiment: flow cytometry on CHO cells with murine PD-1
T2 sequence: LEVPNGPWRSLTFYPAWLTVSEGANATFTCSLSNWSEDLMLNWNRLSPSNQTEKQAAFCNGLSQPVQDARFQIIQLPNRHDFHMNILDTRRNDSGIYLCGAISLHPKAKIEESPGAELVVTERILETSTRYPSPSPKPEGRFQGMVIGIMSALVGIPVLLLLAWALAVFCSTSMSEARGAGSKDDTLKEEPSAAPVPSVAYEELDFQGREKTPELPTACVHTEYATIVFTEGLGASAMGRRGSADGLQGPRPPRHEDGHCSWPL
Experimental: (§1) Cells are then washed 3×, and are incubated with a secondary antibody (PE-labelled, at final concentration of 5 μg/ml) in PBS 1% BSA for 30 min on ice (protected from light). Cells are washed 3× and analyzed via flow cytometry. Flow cytometry is performed on an Accuri C6 system (BD Biosciences) and MFIs are calculated on the C6 software. EC50 s are calculated on Graphpad software.

[1] = target: T3, human PD-1 (soluble antigen of the MSD assay, b-PD-1 monomer) (human, UniProt Q15116 25-170, limits assumed, biotinylated (b-PD-1), site not stated); experiment: MSD solution equilibrium titration, avid KD
T3 construct: The antigen format of the 'avid' measurement is not described
T3 sequence (Q15116 25-170 limits assumed): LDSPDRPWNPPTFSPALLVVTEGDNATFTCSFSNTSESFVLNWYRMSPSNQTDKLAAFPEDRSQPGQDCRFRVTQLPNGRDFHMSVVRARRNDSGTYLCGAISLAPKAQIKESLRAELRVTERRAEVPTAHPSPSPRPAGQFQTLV
Experimental: (§2) Equilibrium affinity measurements are performed as previously described (Estep, P., et al., MAbs, 2013. 5(2): p. 270-8). Solution equilibrium titrations (SET) are performed in PBS+0.1% IgG-Free BSA (PBSF) where antigen (b-PD-1 monomer) is held constant at 10-100 pM and is incubated with 3- to 5-fold serial dilutions of Fab or mAbs starting at 5-100 nM (experimental condition is sample dependent). Antibodies diluted at 20 nM in PBS are coated onto standard bind MSD-ECL plates overnight at 4° C. or at room temperature for 30 min. Plates are blocked with BSA for 30 min whilst shaking at 700 rpm. Plates are then washed 3× with wash buffer (PBSF+0.05% Tween 20). SET samples are applied and incubated on the plates for 150 s with shaking at 700 rpm followed by one wash. Antigen captured on a plate is detected with 250 ng/mL sulfotag-labeled streptavidin in PBSF by incubation on the plate for 3 min. The plates are washed three times with wash buffer and are then read on the MSD Sector Imager 2400 instrument using 1× Read Buffer T with surfactant. The percent free antigen is plotted as a function of titrated antibody in Prism and fit to a quadratic equation to extract the KD. To improve throughput, liquid handling robots are used throughout MSD-SET experiments, including for SET sample preparation.

[2] = target: T4, murine PD-1 (soluble antigen of the MSD assay) (mouse, UniProt Q02242 25-169, limits assumed); experiment: MSD solution equilibrium titration, monovalent KD
T4 construct: also called mouse PD-1
T4 sequence: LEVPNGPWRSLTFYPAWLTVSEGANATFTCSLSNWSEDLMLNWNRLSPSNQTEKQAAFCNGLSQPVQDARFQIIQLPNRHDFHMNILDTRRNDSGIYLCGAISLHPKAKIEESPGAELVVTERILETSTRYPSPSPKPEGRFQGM
Experimental: as §2

[3] = target: T3, human PD-1 (soluble antigen of the MSD …); experiment: MSD solution equilibrium titration, monovalent KD
Experimental: as §2

cyno PD-1_Fc = cyno PD-1_Fc (cyno); experiment: bio-layer interferometry (ForteBio), Fab in solution, cyno PD-1_Fc on sensor tip
murine PD-1_Fc = target: T5, murine PD-1_Fc (mouse, UniProt Q02242 25-167, limits assumed); experiment: bio-layer interferometry (ForteBio), Fab in solution, murine PD-1_Fc on sensor tip
T5 construct: not shown: Fc part
T5 sequence: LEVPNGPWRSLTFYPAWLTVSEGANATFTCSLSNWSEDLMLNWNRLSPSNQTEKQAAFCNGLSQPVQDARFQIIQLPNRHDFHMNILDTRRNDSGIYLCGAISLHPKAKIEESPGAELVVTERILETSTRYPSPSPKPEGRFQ

human PD-1_Fc = target: T6, human PD-1_Fc (human, UniProt Q15116 25-167, limits assumed); experiment: bio-layer interferometry (ForteBio), Fab in solution, human PD-1_Fc on sensor tip
T6 construct: not shown: Fc part
T6 sequence (Q15116 25-167 limits assumed): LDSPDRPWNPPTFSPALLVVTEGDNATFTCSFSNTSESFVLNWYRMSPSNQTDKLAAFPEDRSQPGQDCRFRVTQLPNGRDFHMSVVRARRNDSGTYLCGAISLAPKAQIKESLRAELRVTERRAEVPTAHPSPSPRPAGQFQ

[4] = target: T4, murine PD-1 (soluble antigen of the MSD …); experiment: MSD solution equilibrium titration, avid KD
Experimental: as §2

[5] = target: T7, human PD-1 on cells (CHO cells; T cells in the mixed lymphocyte reaction) (human, UniProt Q15116 25-288); experiment: cell-based or functional assay
T7 sequence (Q15116 25-288 limits assumed): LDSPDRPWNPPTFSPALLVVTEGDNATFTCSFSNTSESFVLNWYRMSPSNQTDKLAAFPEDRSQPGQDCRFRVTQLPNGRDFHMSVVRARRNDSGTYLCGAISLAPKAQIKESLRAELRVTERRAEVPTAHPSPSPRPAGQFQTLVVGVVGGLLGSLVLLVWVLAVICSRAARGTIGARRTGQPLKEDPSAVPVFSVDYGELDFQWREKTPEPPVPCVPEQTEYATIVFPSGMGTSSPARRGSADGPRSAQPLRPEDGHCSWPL

[6] = target: T7, human PD-1 on cells (CHO cells; T cells …); experiment: flow cytometry on CHO cells with human PD-1 (n=1)
Experimental: as §1

[7] = target: T7, human PD-1 on cells (CHO cells; T cells …); experiment: cell-based or functional assay; remark: listed apart in the source
[8] = target: T7, human PD-1 on cells (CHO cells; T cells …); experiment: flow cytometry, remaining PD-L2-FITC signal after 100 nM antibody; competitor PD-L2-FITC
Experimental: CHO cells 0.2×10⁶ are incubated with the experimental antibody (100 nM) for 30 min in PBS 1% BSA on ice. […] Cells are washed 3× and analyzed via flow cytometry. Flow cytometry is performed on an Accuri C6 system (BD Biosciences) and MFIs are calculated on the C6 software. EC50 s are calculated on Graphpad software.

T1 sequence (Q15116 25-167 limits assumed): as the sequence (Q15116 25-167 limits assumed) above

- Kd (human PD-1_HIS): 1.9 nM
- EC50 (murine PD-1 on CHO cells): 9.26 nM
- Kd [1]: 0.035 nM
- Kd [2]: 2.3 nM
- Kd [3]: 0.3 nM
B1: Antibody D, IgG1 format expressed in yeast (antibody, V domains shown)
VH: QVQLVQSGAEVKKPGASVKVSCKASGYTFEKYYMHWVRQAPGQGLEWMGIINPDGGSTGYAQKFQGRVTMTRDTSTSTVYMELSSLRSEDTAVYYCAKEGVADGYGLVDVWGQGTMVTVSS
VL: EIVLTQSPATLSLSPGERATLSCRASQSVSSYLAWYQQKPGQAPRLLIYDASKRATGIPARFSGSGSGTDFTLTISSLEPEDFAVYYCDQRNNWPLTFGGGTKVEIK
notes: Tested in IgG1 format, expressed in yeast

- Kd (cyno PD-1_Fc): 4.4 nM
- Kd (murine PD-1_Fc): 7.8 nM
- Kd (human PD-1_Fc): 3.4 nM
B2: Fab of Antibody D (Fab, V domains shown)
VH: B1 VH
VL: B1 VL
notes: Fab in solution in BLI; also called Antibody D (Fab in solution)

- Kd (cyno PD-1_Fc): 2.4 nM
- Kd (murine PD-1_Fc): 10 nM
- Kd (human PD-1_Fc): 2 nM
B3: Fab of Antibody C (Fab, V domains shown)
VH: B1 VH with E30T, K31A, Y32Q, D54S, S57E
VL: B1 VL
notes: Fab in solution in BLI; also called Antibody C (Fab in solution)

- Kd (cyno PD-1_Fc): 3.6 nM
- Kd (murine PD-1_Fc): 6.1 nM
- Kd (human PD-1_Fc): 3 nM
B4: Fab of Antibody F (Fab, V domains shown)
VH: B1 VH with E30S, K31A
VL: B1 VL
notes: Fab in solution in BLI; also called Antibody F (Fab in solution)

- Kd (human PD-1_HIS): 1.4 nM
- EC50 (murine PD-1 on CHO cells): 6.13 nM
- Kd [4]: 0.38 nM
- Kd [1]: 0.014 nM
- Kd [2]: 2.7 nM
- Kd [3]: 0.13 nM
B5: Antibody B, IgG1 format expressed in yeast (antibody, V domains shown)
VH: B1 VH with K31G, D54E, S57E, G59S, T76I, V79A, S85R, E89D
VL: B1 VL
notes: as for B1

- IL-2 in supernatant, 0.01 nM IgG [5]: 519 pg/mL
- IL-2 in supernatant, 0.1 nM IgG [5]: 587 pg/mL
- IL-2 in supernatant, 1 nM IgG [5]: 914 pg/mL
- IL-2 in supernatant, 10 nM IgG [5]: 1190 pg/mL
- IL-2 in supernatant, 100 nM IgG [5]: 1620 pg/mL
- IL-2 secretion fold change vs. IgG control, 0.01 nM IgG [5]: 1.01 fold
- IL-2 secretion fold change vs. IgG control, 0.1 nM IgG [5]: 1.15 fold
- IL-2 secretion fold change vs. IgG control, 1 nM IgG [5]: 1.83 fold
- IL-2 secretion fold change vs. IgG control, 10 nM IgG [5]: 2.29 fold
- IL-2 secretion fold change vs. IgG control, 100 nM IgG [5]: 2.62 fold
- Kd (human PD-1_HIS): 1 nM
- EC50 [6]: 4.12 nM
- EC50 (murine PD-1 on CHO cells): 2.88 nM
- IFNg secretion fold change vs. IgG control, 0.01 nM IgG [7]: 0.97 fold
- IFNg secretion fold change vs. IgG control, 0.1 nM IgG [7]: 1.5 fold
- IFNg secretion fold change vs. IgG control, 1 nM IgG [7]: 1.82 fold
- IFNg secretion fold change vs. IgG control, 10 nM IgG [7]: 1.79 fold
- IFNg secretion fold change vs. IgG control, 100 nM IgG [7]: 1.84 fold
- IFNγ in supernatant, 0.01 nM IgG [7]: 14400 pg/mL
- IFNγ in supernatant, 0.1 nM IgG [7]: 16500 pg/mL
- IFNγ in supernatant, 1 nM IgG [7]: 21100 pg/mL
- IFNγ in supernatant, 10 nM IgG [7]: 24100 pg/mL
- IFNγ in supernatant, 100 nM IgG [7]: 27400 pg/mL
- Kd [4]: 0.13 nM
- Kd [1]: 0.0093 nM
- Kd [2]: 1.9 nM
- Kd [3]: 0.12 nM
- MFI (PD-L2-FITC) [8]: 30100 MFI
B6: Antibody C, IgG1 format expressed in yeast (antibody, V domains shown)
VH: B1 VH with E30T, K31A, Y32Q, D54S, S57E
VL: B1 VL
notes: as for B1

- IL-2 in supernatant, 0.01 nM IgG [5]: 708 pg/mL
- IL-2 in supernatant, 0.1 nM IgG [5]: 586 pg/mL
- IL-2 in supernatant, 1 nM IgG [5]: 618 pg/mL
- IL-2 in supernatant, 10 nM IgG [5]: 975 pg/mL
- IL-2 in supernatant, 100 nM IgG [5]: 1410 pg/mL
- IL-2 secretion fold change vs. IgG control, 0.01 nM IgG [5]: 1.37 fold
- IL-2 secretion fold change vs. IgG control, 0.1 nM IgG [5]: 1.15 fold
- IL-2 secretion fold change vs. IgG control, 1 nM IgG [5]: 1.23 fold
- IL-2 secretion fold change vs. IgG control, 10 nM IgG [5]: 1.87 fold
- IL-2 secretion fold change vs. IgG control, 100 nM IgG [5]: 2.28 fold
- Kd (human PD-1_HIS): 4.3 nM
- EC50 [6]: 10.2 nM
- EC50 (murine PD-1 on CHO cells): 11 nM
- IFNg secretion fold change vs. IgG control, 0.01 nM IgG [7]: 1.49 fold
- IFNg secretion fold change vs. IgG control, 0.1 nM IgG [7]: 1.49 fold
- IFNg secretion fold change vs. IgG control, 1 nM IgG [7]: 1.11 fold
- IFNg secretion fold change vs. IgG control, 10 nM IgG [7]: 1.37 fold
- IFNg secretion fold change vs. IgG control, 100 nM IgG [7]: 1.52 fold
- IFNγ in supernatant, 0.01 nM IgG [7]: 22100 pg/mL
- IFNγ in supernatant, 0.1 nM IgG [7]: 16400 pg/mL
- IFNγ in supernatant, 1 nM IgG [7]: 12900 pg/mL
- IFNγ in supernatant, 10 nM IgG [7]: 18400 pg/mL
- IFNγ in supernatant, 100 nM IgG [7]: 22600 pg/mL
- Kd [1]: 0.049 nM
- Kd [2]: 9.6 nM
- Kd [3]: 4.9 nM
- MFI (PD-L2-FITC) [8]: 90900 MFI
B7: Antibody A, IgG1 format expressed in yeast (antibody, V domains shown)
VH: B1 VH with E30T, K31S, D54S, G59S, V119I
VL: B1 VL
notes: as for B1

- Kd (human PD-1_HIS): 1.6 nM
- EC50 (murine PD-1 on CHO cells): 5.86 nM
- Kd [4]: 0.44 nM
- Kd [1]: 0.018 nM
- Kd [2]: 1.2 nM
- Kd [3]: 0.17 nM
B8: Antibody F, IgG1 format expressed in yeast (antibody, V domains shown)
VH: B1 VH with E30S, K31A
VL: B1 VL
notes: as for B1

- Kd (cyno PD-1_Fc): 3.7 nM
- Kd (murine PD-1_Fc): 17 nM
- Kd (human PD-1_Fc): 2.7 nM
B9: Fab of Antibody B (Fab, V domains shown)
VH: B1 VH with K31G, D54E, S57E, G59S, T76I, V79A, S85R, E89D
VL: B1 VL
notes: Fab in solution in BLI; also called Antibody B (Fab in solution)

- Kd (cyno PD-1_Fc): 3.3 nM
- Kd (murine PD-1_Fc): 7.6 nM
- Kd (human PD-1_Fc): 2.7 nM
B10: Fab of Antibody E (Fab, V domains shown)
VH: B1 VH with E30T, K31S, Y32N, D54S, G55E
VL: B1 VL
notes: Fab in solution in BLI; also called Antibody E (Fab in solution)

- Kd (cyno PD-1_Fc): 14 nM
- Kd (murine PD-1_Fc): 33 nM
- Kd (human PD-1_Fc): 16 nM
B11: Fab of Antibody A (Fab, V domains shown)
VH: B1 VH with E30T, K31S, D54S, G59S, V119I
VL: B1 VL
notes: Fab used in solution in the bio-layer interferometry columns 'Fab in solution'; also called Antibody A (Fab in solution)
